Data: patent publication US20240415919A1, “COMPOSITIONS AND METHODS FOR TREATMENT OF AUTOIMMUNE DISORDERS AND CANCER” (Dana-Farber Cancer Institute, Inc., priority 2021, published 2024)
Residue numbers refer to the chain shown, from its start. One block for each molecule: values may come before it.

How the values were obtained:
Balb/C heart allografts = assay: Balb/C heart transplantation into skin-sensitized B6 hosts after peptide vaccination; settings: immunized hosts, FIG. 11B
FL9.2 T cells = assay: FL9 peptide immunization of hosts adoptively transferred with FL9.2 T cells; format: in vivo, mouse
Protocol: CD45.1+B6 hosts were adoptively transferred with FL9.2 T cells and immunized i.p. with FL9 in CFA or no peptide (CFA alone) on day 0. Three days later, activation (CD69) proliferation of FL9.2 T cells (Ki67) was measured.
(§1) CD45.1^+ B6 or TCRα^−/− mice were transferred with CFSE labelled 2×10^6 FL9.2 Tg T cells followed by i.p. immunization with 100 μg FL9 or FL9-68 peptides in CFA. Proliferation and activation of FL9.2 Tg T cells in the adoptive hosts were analzyed by assessing CFSE dilution, Ki67 and CD69 expression at day 3 and 6 after transfer.
as §1, with “CD45.1^+B6” for “CD45.1^+ B6”

Ly49F (mouse) = Ly49F (mouse) (UniProt Q60653); assay: cell-based or functional assay
[1] = molecular target: T1, FL9 self-peptide (source protein not named) peptide on Qa-1b (mouse); assay: multimer staining
T1 peptide: FYAEATPML

[2] = molecular target: T2, FL9-68, synthetic superagonist variant of the FL9 self-peptide (P to L at position 7) peptide on Qa-1b (mouse); assay: activation reporter or marker
T2 peptide: FYAEATLML

[3] = molecular target: T3, Hsp60 (Hsp60p216) peptide on Qa-1b (mouse); assay: multimer staining
T3 peptide: GMKFDRGYI

[4] = molecular target: T1, FL9 self-peptide (source protein not …); assay: Kd or kinetics

Sequence of Ly49F (mouse) (Q60653 whole entry): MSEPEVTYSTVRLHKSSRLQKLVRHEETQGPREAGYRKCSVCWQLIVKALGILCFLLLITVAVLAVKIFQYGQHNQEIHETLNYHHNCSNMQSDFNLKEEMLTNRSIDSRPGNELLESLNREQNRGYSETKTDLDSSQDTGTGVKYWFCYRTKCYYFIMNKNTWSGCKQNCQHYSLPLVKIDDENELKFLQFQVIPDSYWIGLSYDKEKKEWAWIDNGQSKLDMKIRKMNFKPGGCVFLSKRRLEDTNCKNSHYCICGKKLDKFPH

binding result [1]: no recognition
B1: FL9.15 (TCR, V domains shown)
Valpha: GDSVTQTEGPVTVSESESLIINCTYSATSIAYPNLFWYVRYPGEGLQLLLKVITAGQKGSSRGFEATYNKETTSFHLQKASVQESDSAVYYCALGEASSGSWQLIFGSGTQLTVMP
Vbeta: DSGVVQSPRHIIKEKGGRSVLTCIPISGHSNVVWYQQTLGKELKFLIQHYEKVERDKGFLPSRFSVQQFDDYHSEMNMSALELEDSAMYFCASSLGQGNYAEQFFGPGTRLTVL

binding result [1]: recognises
B2: FL9.40 (TCR, V domains shown)
Valpha: AQSVTQPDARVTVSEGASLQLRCKYSYFGTPYLFWYVQYPRQGLQLLLKYYPGDPVVQGVNGFEAEFSKSNSSFHLRKASVHWSDWAVYFCAVTRYGSSGNKLIFGIGTLLSVKP
Vbeta: B1 Vbeta with L95P, G96R, Q97L, N99S, Y100A, A101E, E102T, Q103L, F104Y, P107S

binding result [1]: recognises
B6: FL9.5 (TCR, V domains shown)
Valpha: AQSVTQPDARVTVSEGASLQLRCKYSYFGTPYLFWYVQYPRQGLQLLLKYYPGDPVVQGVNGFEAEFSKSNSSFHLRKASVHWSDWAVYFCAVKGGNYKPTFGKGTSLVVHP
Vbeta: NSGVVQSPRYIIKGKGERSILKCIPISGHLSVAWYQQTQGQELKFFIQHYDKMERDKGNLPSRFSVQQFDDYHSEMNMSALELEDSAVYFCASSLTGAYEQYFGPGTRLTVL

binding result [1]: recognises
B7: FL9.43 (TCR, V domains shown)
Valpha: B6 Valpha with G95S, G96T, N97G, Y98S, P100L, T101S, T106A, S107K, V109T, H111S
Vbeta: NSGVVQSPRYIIKGKGERSILKCIPISGHLSVAWYQQTQGQELKFFIQHYDKMERDKGNLPSRFSVQQFDDYHSEMNMSALELEDSAVYFCASSPRLGSAETLYFGSGTRLTVL

binding result [1]: recognises
B8: FL9.30 (TCR, V domains shown)
Valpha: AQSVTQPDARVTVSEGASLQLRCKYSYFGTPYLFWYVQYPRQGLQLLLKYYPGDPVVQGVNGFEAEFSKSNSSFHLRKASVHWSDWAVYFCAVSSNNAGAKLTFGGGTRLTVRP
Vbeta: DSGVVQSPRHIIKEKGGRSVLTCIPISGHSNVVWYQQTLGKELKFLIQHYEKVERDKGFLPSRFSVQQFDDYHSEMNMSALELEDSAMYFCASSRRPASAETLYFGSGTRLTVL

binding result [1]: recognises
B9: FL9.41 (TCR, V domains shown)
Valpha: AQSVTQPDARVTVSEGASLQLRCKYSYFGTPYLFWYVQYPRQGLQLLLKYYPGDPVVQGVNGFEAEFSKSNSSFHLRKASVHWSDWAVYFCAVSIWATSSGQKLVFGQGTILKVYL
Vbeta: VTLLEQNPRWRLVPRGQAVNLRCILKNSQYPWMSWYQQDLQKQLQWLFTLRSPGDKEVKSLPGADYLATRVTDTELRLQVANMSQGRTLYCTCSARQGSGNTLYFGEGSRLIVV

binding result [1]: recognises
B11: FL9.26 (TCR, V domains shown)
Valpha: B6 Valpha with K94S, G95T, N97G, P100V, T101V, K104S, S107R, V109L, H111S
Vbeta: B7 Vbeta with P95H, L97S, G98F, A100G, E101N, S107E, T109S, T112I, L114V

binding result [3]: no recognition | binding result [2]: recognises | binding result [4]: recognises
B12: FL9.8 TCR (TCR, V domains shown)
Valpha: AQSVTQPDARVTVSEGASLQLRCKYSYFGTPYLFWYVQYPRQGLQLLLKYYPGDPVVQGVNGFEAEFSKSNSSFHLRKASVHWSDWAVYFCAVRANYAQGLTFGLGTRVSVFP
Vbeta: NSGVVQSPRYIIKGKGERSILKCIPISGHLSVAWYQQTQGQELKFFIQHYDKMERDKGNLPSRFSVQQFDDYHSEMNMSALELEDSAVYFCASSLLGGPSAETLYFGSGTRLTVL

binding result [1]: recognises
B13: FL9.34 (TCR, V domains shown)
Valpha: B12 Valpha with A95G, N96Q, Y97G, A98G, Q99R, G100A, T102I, L105T, R108T, F112S
Vbeta: NSGVVQSPRYIIKGKGERSILKCIPISGHLSVAWYQQTQGQELKFFIQHYDKMERDKGNLPSRFSVQQFDDYHSEMNMSALELEDSAVYFCASSPGPSQNTLYFGAGTRLSVL

The next lines start with the molecule.

Molecule: FYAEATPML [FL9, Qa-1-associated self-peptide, reference compound]
expansion of FL9-Qa-1 tetramer binding CD8 Treg (CD44+CD122+Ly49+CD8+T) (Balb/C heart allografts): 8 fold | in vivo activation/proliferation of transferred FL9 TCR+ CD8 T cells (FL9.2 T cells; i.p. immunization with peptide in CFA, CD45.1+ B6 or TCRα-/- hosts): no in vivo stimulation of FL9.2 T cells | expansion of CD8 Treg after immunization (FL9.2 T cells; immunization of mice with the self-peptide): did not elicit detectable expansion of CD8 Treg

Molecule: Chimeric anti-Ly49F Ab (HBF-719 with mIgG2a Fc) (antibody)
depletion of Ly49F+ CD8 Treg in spleen, lymphocytes and blood (Ly49F (mouse)): > 95%

B3: FL9.35 (TCR, V domains shown)
Valpha: B6 Valpha with K94S, G95M, G96M, N97G, P100L, K104T, V109L, H111D
Vbeta: B8 Vbeta with R96T, P97G, A98G
binding result [1]: recognises

B4: FL9.31 (TCR, V domains shown)
Valpha: AQSVTQPDARVTVSEGASLQLRCKYSYFGTPYLFWYVQYPRQGLQLLLKYYPGDPVVQGVNGFEAEFSKSNSSFHLRKASVHWSDWAVYFCAVKDSGYNKLTFGKGTVLLVSP
Vbeta: NSGVVQSPRYIIKGKGERSILKCIPISGHLSVAWYQQTQGQELKFFIQHYDKMERDKGNLPSRFSVQQFDDYHSEMNMSALELEDSAVYFCASSLAGREQYFGPGTRLTVL
binding result [1]: recognises

B5: FL9.2 TCR (TCR, V domains shown)
Valpha: B6 Valpha with K94R, G95A, G96N, N97T, Y98G, P100L, K104D, S107V, V109T, H111K
Vbeta: B8 Vbeta with R95P, P97L
binding result [2]: recognises

B10: FL9.38 (TCR, V domains shown)
Valpha: QQKVQQSPESLSVPEGGMASLNCTSSDRNFQYFWWYRQHSGEGPKALMSIFSDGDKKEGRFTAHLNKASLHVSLHIRDSQPSDSALYFCALSESSGSWQLIFGSGTQLTVMP
Vbeta: EAAVTQSPRSKVAVTGGKVTLSCHQTNNHDYMYWYRQDTGHGLRLIHYSYVADSTEKGDIPDGYKASRPSQENFSLILELASLSQTAVYFCASRDRGDQNTLYFGAGTRLSVL
binding result [1]: no recognition
